Reference: patent publication US6593454B2, “Methods for identifying inhibitors of methionine aminopeptidases” (Saint Louis University, priority 1999, dated 2003)

B1: human type 2 MAP (Homo sapiens) (protein)
chain: MAGVEEVAASGSHLNGDLDPDDREEGAASTAEEAAKKKRRKKKKSKGPSAAGEQEPDKESGASVDEVARQLERSALEDKERDEDDEDGDGDGDGATGKKKKKKKKKRGPKVQTDPPSVPICDLYPNGVFPKGQECEYPPTQDGRTAAWRTTSEEKKALDQASEEIWNDFREAAEAHRQVRKYVMSWIKPGMTMIEICEKLEDCSRKLIKENGLNAGLAFPTGCSLNNCAAHYTPNAGDTTVLQYDDICKIDFGTHISGRIIDCAFTVTFNPKYDTLLKAVKDATNTGIKCAGIDVRLCDVGEAIQEVMESYEVEIDGKTYQVKPIRNLNGHSIGQYRIHAGKTVPIVKGGEATRMEEGEVYAIETFGSTGKGVVHDDMECSHYMKNFDVGHVPIRLPRTKHLLNVINENFGTLAFCRRWLDRLGESKYLMALKNLCDLGIVDPYPPLCDIKGSYTAQFEHTILLRPTCKEVVSRGDDY
B2: yeast type 1 MAP (Saccharomyces cerevisiae S288C) (protein)
chain: MSTATTTVTTSDQASHPTKIYCSGLQCGRETSSQMKCPVCLKQGIVSIFCDTSCYENNYKAHKALHNAKDGLEGAYDPFPKFKYSGKVKASYPLTPRRYVPEDIPKPDWAANGLPVSEQRNDRLNNIPIYKKDQIKKIRKACMLGREVLDIAAAHVRPGITTDELDEIVHNETIKRGAYPSPLNYYNFPKSLCTSVNEVICHGVPDKTVLKEGDIVNLDVSLYYQGYHADLNETYYVGENISKEALNTTETSRECLKLAIKMCKPGTTFQELGDHIEKHATENKCSVVRTYCGHGVGEFFHCSPNIPHYAKNRTPGVMKPGMVFTIEPMINEGTWKDMTWPDDWTSTTQDGKLSAQFEHTLLVTEHGVEILTARNKKSPGGPRQRIK

Tests used:
[1] = substrate: CSCC[C@H](N)C(=O)NCC(=O)N1CCC[C@H]1C(=O)Nc1ccc([N+](=O)[O-])cc1; test: AccQ-Tag assay, kinetic parameters of the substrate peptide with type 2 MAP; format: biochemical; settings: other: human type 2 MAP; substrate Met-Gly-Pro-p-nitroanilide; mean ± SD
Source text: (§1) To determine whether Met-Gly-Pro-p-nitroanilide is a substrate for MAP, and whether the presence of dipeptidyl peptidase could affect the activity of MAP, an AccQ-Tag assay was used as described in Zuo et al., supra.

[2] = substrate: CSCC[C@H](N)C(=O)NCC(=O)N1CCC[C@H]1C(=O)Nc1ccc([N+](=O)[O-])cc1; test: AccQ-Tag assay, kinetic parameters of the substrate peptide with type 1 MAP; format: biochemical; settings: other: yeast type 1 MAP; substrate Met-Gly-Pro-p-nitroanilide; mean ± SD
Source text: as §1

Protein	Km [1]	kcat [1]	kcat/Km [1]	Km [2]	kcat [2]	kcat/Km [2]
B1	3 ± 0.5 mM	8.63 ± 0.583 s⁻¹	2870 ± 433 M⁻¹ s⁻¹	–	–	–
B2	–	–	–	4 ± 0.7 mM	14.4 ± 0.417 s⁻¹	3600 ± 583 M⁻¹ s⁻¹
